Tests used:
mini-procollagen III [1] = assay: SPR; details: immobilized mini-procollagen III (240 RU), flow rate 50 μL/min, 25°C; for Kd: 1:1 binding model, parent: est. 1.4 nM, read off a plot
mini-procollagen III [2] = assay: SPR; Biacore T200; mini-procollagen III immobilised (240 RU), C1C2 wild-type or mutants injected, 50 μL/min, 25°C, 10 mM Na-Hepes pH 7.4, 0.15 M NaCl, 5 mM CaCl2, 0.05 % P20; 1:1 binding model

Substance | Kd (mini-procollagen III [1]) [nM] | response (mini-procollagen III [1]; 48 nM C1C2, response at end of association (about 100 s), parent: est. 29, read off a …) [RU] | fold increase in dissociation constant against wild-type C1C2 (mini-procollagen III [2]) [fold]
C1C2 fragment of PCPE-1, wild-type control, pCEP-Pu construct (N-terminal APLA, C-terminal …) (from UniProt Q15113) R55A; R91A; L234E | 120 | – | –
C1C2 fragment of PCPE-1, wild-type control, pCEP-Pu construct (N-terminal APLA, C-terminal …) (from UniProt Q15113) R91A | 61 | – | –
C1C2 fragment of PCPE-1, Arg91Ala mutant (pCEP-Pu construct) (from UniProt Q15113 1-252) (domain or fragment) | – | – | 50

Continued by falling Kd (mini-procollagen III [1]), values first:

Kd (mini-procollagen III [1]) [nM] | response (mini-procollagen III [1]; 48 nM C1C2, response at end of association (about 100 s), parent: est. 29, read off a …) [RU] | fold increase in dissociation constant against wild-type C1C2 (mini-procollagen III [2]) [fold] | Substance
54 | – | – | C1C2 fragment of PCPE-1, wild-type control, pCEP-Pu construct (N-terminal APLA, C-terminal …) (from UniProt Q15113) R55A; L234E
20 | – | – | C1C2 fragment of PCPE-1, wild-type control, pCEP-Pu construct (N-terminal APLA, C-terminal …) (from UniProt Q15113) L234E
2.6 | 26 | – | C1C2 fragment of PCPE-1, wild-type control, pCEP-Pu construct (N-terminal APLA, C-terminal …) (from UniProt Q15113) R55A

Source: publication PMC6372009
